Target: human Angiotensin Converting Enzyme 2 (amino acids 19-615) fused to human IgG Fc (human) (UniProt Q9BYF1)
Experiment: SPR

## SARS-CoV-2 receptor binding domain (RBD amino acids 330-532) with the Y489R mutation (domain or fragment)
  reduction of binding against RBD-WT: 94%

Reference: article doi:10.1101/2021.04.01.438122
